Data on four molecules can be found in patent publication US20170051285A1, “COMPOSITIONS AND METHODS OF USING SAME FOR REDUCING RESISTANCE TO MOSQUITO LARVICIDES” (priority 2014, published 2017).

“Also recorded” adds a separate entry of the source. Read-outs that look alike come from different tables or passages of the source.

Holding throughout (format): in vivo, Aedes aegypti
Series [1] concerns Ae. aegypti female mosquitoes (Rockefeller and Rio de Janeiro strains). Description: CDC bottle bioassay with deltamethrin, adult females. The settings on record: 2 μg/mL deltamethrin; for mortality at 2 µg/mL: Aedes aegypti, read-out: mortality at diagnostic dosage. On the procedure:
FIGS. 14A-C are graphs illustrating the dose-response curves for 3- to 5-day-old Aedes aegypti female mosquitoes on insecticide-susceptible Rockefeller strain (FIG. 14A) and on insecticide-resistant Rio de Janeiro strain (FIG. 14B). Mosquitoes were exposed to different concentrations of deltamethrin in 250-mL glass bottles for up to 24 hours and the percentage of mortality for each time point is shown. FIG. 14C, comparison of the mortality rates of female mosquitoes from Rockefeller (Rock) and Rio de Janeiro (RJ) strains exposed to 2 μg/mL of deltamethrin for different time-points. Data represent mean values of three replicates with standard deviation.
Bottles were prepared following the Brogdon and McAllister (1998) protocol [Brogdon and McAllister (1998) Emerg Infect Dis 4:605-613]. Fifteen-twenty non-blood-fed females from each site were introduced in 250 mL glass bottles impregnated with different concentrations of deltamethrin (Sigma-Aldrich) in 1 ml acetone. Each test consisted of four impregnated bottles and one control bottle. The control bottle contained acetone with no insecticide. At least three tests were conducted for each insecticide and population. Immediately prior to use, all insecticide solutions were prepared fresh from stock solutions. At 15, 30 and 45 min intervals, the number of live and dead mosquitoes in each bottle was recorded. The mortality criteria included mosquitoes with difficulties flying or standing on the bottle's surface. Mosquitoes that survived the appropriate dose for insecticide were considered to be resistant [Brogdon and McAllister (1998), supra].
Therefore, it was concluded that 36.05% of the mosquitoes in this population (RJ) are resistant to deltamethrin.

For series [2], the system named is Ae. aegypti larvae (Rockefeller and Rio de Janeiro strains). Description: Temephos larval susceptibility bioassay (WHO methodology). Here is the method:
(§1) First (L1), Second (L2) or Third (L3) instar larvae were treated (in groups of 100 larvae) in a final volume of 3 mL of autoclaved water with sodium channel (AAEL008297), PgP (AAEL010379), Ago3 (AAEL007823), and Aub (AAEL007698) dsRNA (0.5 μg/μL), or AAEL005112, AAEL003446, AAEL007815 and AAEL002202 dsRNA (0.1 μg/μL). The control group was kept in 3 ml sterile water only. Larvae were soaked in the dsRNA solutions for 24 hours at 27° C., and were then transferred into new containers (200 larvae/1000 mL of chlorine-free tap water), which were also maintained at 27° C., and provided […] lab dog/cat diet (Purina Mills) suspended in water as a source of food on a daily basis. After soaking procedure, the larvae were reared until third instar and divided in […] with 10-20 larvae in each cup (final volume of 100 mL) or were divided immediately after soaking. Six replicas were treated with the lethal concentration 50 (0.00573 ppm) of temephos and 2 replicas with ethanol only (control group). Mortality was recorded after 24 and 48 hours. See Flowcharts 1 and 2 (FIGS. 1 and 2, respectively).
Susceptibility tests were carried out according to the methodology proposed by the World Health Organization (WHO). In order to characterize the status of Temephos resistance in Ae. aegypti (Rio de Janeiro) strain, the present inventors first determined the lethal concentration LC99 (concentration able to kill 99% of the larvae) using the susceptible strain (Rockfeller) (see FIG. 5: 0.01401 ppm). Then, bioassays with the Rio de Janeiro strain were performed using a diagnostic concentration of 0.0282 ppm of Temephos, which corresponded to twice the lethal concentration, 99% (LC99), determined for this susceptible strain. According to WHO, when the field population is treated with the diagnostic dose and the mortality rates are equal to or higher than 98%, the population is considered susceptible, between 80% and 98%, with alterations in susceptibility, and below 80%, resistant [WHO (1981) WHO/VBC/81.807]. […]

Series [3] relates to P-glycoprotein (AAEL010379) mRNA. Description: qPCR of P-glycoprotein mRNA after dsRNA treatment of larvae. Here is the method: as §1
(§2) Approximately 1000 ng first-strand cDNA obtained as described previously was used as template. The qPCR reactions were performed using SYBR® Green PCR Master Mix (Applied Biosystems) following the manufacturer's instructions. […] Raw quantification cycle (Cq) values normalized against those of the tubulin and S7 standards were then used to calculate the relative expression levels in samples using the 2^−ΔΔCt method previously described [Livak & Schmittgen (2001) Methods. […]
(§3) Approximately 1000 ng first-strand cDNA obtained as described previously was used as template. […] Raw quantification cycle (Cq) values normalized against those of the tubulin and S7 standards were then used to calculate the relative expression levels in samples using the 2^−ΔΔCt method [Livak & Schmittgen, (2001) Methods. […]
A general note: In qPCR the cycle at which signal appears reflects the starting amount.

Series [4] deals with A. aegypti 3rd instar larvae, Rockefeller strain. The experiment in a line: Larvae feeding with food-containing dsRNA and bioassay with diflubenzuron. The settings on record: diflubenzuron 2.5 μg/L. Here is the method:
FIG. 9A, 3rd instar larvae of Rockefeller strain were exposed to diflubenzuron (DBZ) pestanal larvicide (2.5 μg/L) in plastic cups containing 100 mL of dechlorinated tap water and fed simultaneously with dsRNA-containing food. Larval mortality was determined each 3 days. FIG. 9B, larvae were soaked with Sodium channel dsRNAs and exposed to diflubenzuron as described in FIG. 9A. Effects of diflubenzuron on adult emergence is shown as the percentage of emergence inhibition (100-100(T/C), where T is emergence (%) in DBZ-treated groups and C is emergence (%) in control groups. *p<0.01 (ANOVA, bar=S.D, n=4).
3rd instar larvae of Rockefeller strain were exposed to diflubenzuron (DBZ) pestanal larvicide (2.5 μg/L) in plastic cups containing 100 mL of dechlorinated tap water and fed simultaneously with dsRNA-containing food targeting PgP (FIG. 10A) or dsRNA-containing food targeting Sodium channel (FIG. 10B). Larval mortality was determined each 3 days. […]
Third instar larvae (in groups of 10 larvae) were exposed to one concentration (2.5 μg/L) of diflubenzuron pestanal (Sigma) in a final volume of 100 mL of chlorine-free tap water. […] The inhibition of emergence (%) was calculated according to the following formula: 100-100(T/C) where T is percent emergence in treated groups and C is percent emergence in control groups [Mulla et al. (1974) Proc. Papers Calif. […]

Series [5] deals with Argonaute-3 (AAEL007823) mRNA. Description: qPCR of Ago-3 mRNA after dsRNA treatment of larvae. On the procedure: as §1, §2, §3
Setting [6] is: 24 and 48 hours after end of 24 hour soaking of 3rd instar larvae.
Where [7] appears, read: soaked as third instar larvae, reared until adult stage.

As to `CC1(C)[C@H](C(=O)O[C@H](C#N)c2cccc(Oc3ccccc3)c2)[C@@H]1C=C(Br)Br` [deltamethrin], the mortality at 2 µg/mL in series [1] (Rio de Janeiro strain) is 64%; in series [1] (Rockfeller strain), 100%. Moreover, the “mosquitoes of the population resistant to deltamethrin” value in series [1] (Rio de Janeiro (RJ) population) is 36.05%.
As for `COP(=S)(OC)Oc1ccc(Sc2ccc(OP(=S)(OC)OC)cc2)cc1` [Temephos], the mortality at 0.0282 ppm in series [2] (Aedes aegypti, read-out: mortality at diagnostic concentration) amounted to 60%. Also, the “lethal concentration 50” value in series [2] (LC50 used to treat third instar larvae, strain not stated) amounted to 0.00573 ppm. Moreover, the “lethal concentration LC99 (concentration able to kill 99% of the larvae)” value in series [2] (susceptible strain (Rockfeller)) was 0.01401 ppm.

B1: P-glycoprotein dsRNA: dsRNA targeting Ae. aegypti P-glycoprotein gene AAEL010379, SEQ ID NO: 184 (nucleic acid)
chain: TGGAAAAGTTGACATTGACGGGATCACGACAACTGATTTCCAGCTTGGCCGCATACGTTCACAAATGGGTCTCGTATCGCAAGAACCTGTTCTGTTTGATCGCACCATCGCGGAAAATATTGCTTATGGTGACAACACTCGCGAGATAAGCATGCCGGAGATAATCGAGGCATCCAAAATGGCAAACATTCACGAATTCATCGTCAATCTACCGAAGGGGTATGACACTAGCCTAGGAACCAAAGGAGCTCAATTGTCTGGTGGCCAAAAGCAACGTATTGCTATAGCTCGTGCTTTGGTTAGAAATCCACGAATCC
modifications: double stranded RNA
With B1, in series [3] (setting [6]), the “PgP mRNA levels after the end of dsRNA treatment (FIG. 19A)” value is listed as “decreased mRNA levels”. For the same molecule, the “P-glycoprotein mRNA expression by qPCR (FIG. 7)” value in series [3] (larvae soaked 24 hours in dsRNA, temephos bioassay at third instar, versus water) is listed as “induced gene silencing; also recorded: decrease in mRNA expression level”. Moreover, in series [3] (setting [7]), the “PgP mRNA expression in adult mosquitoes (FIG. 20A)” value is listed as “reached normal levels”. In addition, the “viability of mosquito larvae 4 days after treatment with DBZ (FIGS. 10A-B)” value in series [4] (fed agarose cubes with 20 μg dsRNA once a day for 4 days) is “reduced significantly the viability of mosquito larvae”. The “susceptibility to diflubenzuron: larvae mortality and adult emergence (FIGS. 9A-B)” value in series [4] (fed dsRNA-containing food simultaneously) is “increases its susceptibility to diflubenzuron insecticide”.

B2: Ago-3 dsRNA: dsRNA targeting Ae. aegypti Argonaute-3 gene AAEL007823, SEQ ID NO: 185 (nucleic acid)
chain: CCCCGTCGACGGCCACGAAGTTACGATCAAGATCATTTACAAGCGCAAACAGCGAATGAGCGAGAACATTCAATTCTACAACATTCTCTTCCAACGCATTATGAAAGTCCTGAAGATGGTCGAGATGGGTCGTAAGAACTTTGACCCCTCGGCCCCGAAACTGATTCCGCAGCATCGTCTGGAGATCTGGCCGGGATACGTTAGCGCTGTGGACGAATATGAGGGCGGCTTGATGTTGAATCTCGACGTGTCCCATCGTGTGCTGCTCCAGACGACGGTTTTGGATCACATCCGAACGCTGGCAAGGGCCAATCCCCAAGATTACAAAAACATGGCCACCAAATCGCTGCTGGGAGCCGTTATATTGACCCGA
modifications: double stranded RNA
Consider B2, for which, in series [5] (setting [6]), the “Ago3 mRNA levels after the end of dsRNA treatment (FIG. 19B)” value is on record as “decreased mRNA levels”. For the same molecule, the “Ago-3 mRNA expression by qPCR (FIG. 8B)” value in series [5] (RJ third instar larvae soaked 24 hours, after treatment with Temephos, versus water) is on record as “induced gene silencing; also recorded: reduction in the mRNA levels”. Further, the “Ago3 mRNA expression in adult mosquitoes (FIG. 20B)” value in series [5] (setting [7]) is recorded as “reached normal levels”.
